# Reference: article PMC3893532
# B1: seipin: N88S (protein)
# parent chain: MVNDPPVPALLWAQEVGQVLAGRARRLLLQFGVLFCTILLLLWVSVFLYGSFYYSYMPTVSHLSPVHFYYRTDCDSSTTSLCSFPVANVSLTKGGRDRVLMYGQPYRVTLELELPESPVNQDLGMFLVTISCYTRGGRIISTSSRSVMLHYRSDLLQMLDTLVFSSLLLFGFAEQKQLLEVELYADYRENSYVPTTGAIIEIHSKRIQLYGAYLRIHAHFTGLRYLLYNFPMTCAFIGVASNFTFLSVIVLFSYMQWVWGGIWPRHRFSLQVNIRKRDNSRKEVQRRISAHQPGPEGQEESTPQSDVTEDGESPEDPSGTEGQLSEEEKPDQQPLSGEEELEPEASDGSGSWEDAALLTEANLPAPAPASASAPVLETLGSSEPAGGALRQRPTCSSS
# B2: seipin: S90L (protein)
# parent chain: MVNDPPVPALLWAQEVGQVLAGRARRLLLQFGVLFCTILLLLWVSVFLYGSFYYSYMPTVSHLSPVHFYYRTDCDSSTTSLCSFPVANVSLTKGGRDRVLMYGQPYRVTLELELPESPVNQDLGMFLVTISCYTRGGRIISTSSRSVMLHYRSDLLQMLDTLVFSSLLLFGFAEQKQLLEVELYADYRENSYVPTTGAIIEIHSKRIQLYGAYLRIHAHFTGLRYLLYNFPMTCAFIGVASNFTFLSVIVLFSYMQWVWGGIWPRHRFSLQVNIRKRDNSRKEVQRRISAHQPGPEGQEESTPQSDVTEDGESPEDPSGTEGQLSEEEKPDQQPLSGEEELEPEASDGSGSWEDAALLTEANLPAPAPASASAPVLETLGSSEPAGGALRQRPTCSSS
# Assay: confocal immunofluorescence, transfected hippocampal neurons
# Conditions: glycan lost; control: wild-type seipin
row,Protein,localisation_or_trafficking
1,B1,changes
2,B2,changes
